From patent US20110263454A1, “Methods of Identifying Functional Characteristics of Promoters, Transcription Modifying Proteins and Transcription Modulating Agents” (Salk Institute for Biological Studies, priority 2008, published 2011)

B1: RVRa: Rev-Erb α (NR1D1), cDNA driver (protein, UniProt P20393 1-614, looked up)
Nuclear receptor subfamily 1 …: MTTLDSNNNTGGVITYIGSSGSSPSRTSPESLYSDNSNGSFQSLTQGCPTYFPPSPTGSLTQDPARSFGSIPPSLSDDGSPSSSSSSSSSSSSFYNGSPPGSLQVAMEDSSRVSPSKSTSNITKLNGMVLLCKVCGDVASGFHYGVHACEGCKGFFRRSIQQNIQYKRCLKNENCSIVRINRNRCQQCRFKKCLSVGMSRDAVRFGRIPKREKQRMLAEMQSAMNLANNQLSSQCPLETSPTQHPTPGPMGPSPPPAPVPSPLVGFSQFPQQLTPPRSPSPEPTVEDVISQVARAHREIFTYAHDKLGSSPGNFNANHASGSPPATTPHRWENQGCPPAPNDNNTLAAQRHNEALNGLRQAPSSYPPTWPPGPAHHSCHQSNSNGHRLCPTHVYAAPEGKAPANSPRQGNSKNVLLACPMNMYPHGRSGRTVQEIWEDFSMSFTPAVREVVEFAKHIPGFRDLSQHDQVTLLKAGTFEVLMVRFASLFNVKDQTVMFLSRTTYSLQELGAMGMGDLLSAMFDFSEKLNSLALTEEELGLFTAVVLVSADRSGMENSASVEQLQETLLRALRALVLKNRPLETSRFTKLLLKLPDLRTLNNMHSEKLLSFRVDAQ
B2: RARb: Retinoic acid receptor β (NR1B2), nuclear hormone receptor cDNA driver (protein, UniProt P10826 1-455, looked up)
Retinoic acid receptor beta: MTTSGHACPVPAVNGHMTHYPATPYPLLFPPVIGGLSLPPLHGLHGHPPPSGCSTPSPATIETQSTSSEELVPSPPSPLPPPRVYKPCFVCQDKSSGYHYGVSACEGCKGFFRRSIQKNMIYTCHRDKNCVINKVTRNRCQYCRLQKCFEVGMSKESVRNDRNKKKKETSKQECTESYEMTAELDDLTEKIRKAHQETFPSLCQLGKYTTNSSADHRVRLDLGLWDKFSELATKCIIKIVEFAKRLPGFTGLTIADQITLLKAACLDILILRICTRYTPEQDTMTFSDGLTLNRTQMHNAGFGPLTDLVFTFANQLLPLEMDDTETGLLSAICLICGDRQDLEEPTKVDKLQEPLLEALKIYIRKRRPSKPHMFPKILMKITDLRSISAKGAERVITLKMEIPGSMPPLIQEMLENSEGHEPLTPSSSGNTAEHSPSISPSSVENSGVSQSPLVQ
B3: RVRb: Rev-Erb β (NR1D2, alternative name RVR), cDNA driver (protein, UniProt Q14995 1-579, looked up)
Nuclear receptor subfamily 1 …: MEVNAGGVIAYISSSSSASSPASCHSEGSENSFQSSSSSVPSSPNSSNSDTNGNPKNGDLANIEGILKNDRIDCSMKTSKSSAPGMTKSHSGVTKFSGMVLLCKVCGDVASGFHYGVHACEGCKGFFRRSIQQNIQYKKCLKNENCSIMRMNRNRCQQCRFKKCLSVGMSRDAVRFGRIPKREKQRMLIEMQSAMKTMMNSQFSGHLQNDTLVEHHEQTALPAQEQLRPKPQLEQENIKSSSPPSSDFAKEEVIGMVTRAHKDTFMYNQEQQENSAESMQPQRGERIPKNMEQYNLNHDHCGNGLSSHFPCSESQQHLNGQFKGRNIMHYPNGHAICIANGHCMNFSNAYTQRVCDRVPIDGFSQNENKNSYLCNTGGRMHLVCPMSKSPYVDPHKSGHEIWEEFSMSFTPAVKEVVEFAKRIPGFRDLSQHDQVNLLKAGTFEVLMVRFASLFDAKERTVTFLSGKKYSVDDLHSMGAGDLLNSMFEFSEKLNALQLSDEEMSLFTAVVLVSADRSGIENVNSVEALQETLIRALRTLIMKNHPNEASIFTKLLLKLPDLRSLNNMHSEELLAFKVHP
B4: RARa: Retinoic acid receptor α (NR1B1), nuclear hormone receptor cDNA driver (protein, UniProt P10276 1-462, looked up)
Retinoic acid receptor alpha: MASNSSSCPTPGGGHLNGYPVPPYAFFFPPMLGGLSPPGALTTLQHQLPVSGYSTPSPATIETQSSSSEEIVPSPPSPPPLPRIYKPCFVCQDKSSGYHYGVSACEGCKGFFRRSIQKNMVYTCHRDKNCIINKVTRNRCQYCRLQKCFEVGMSKESVRNDRNKKKKEVPKPECSESYTLTPEVGELIEKVRKAHQETFPALCQLGKYTTNNSSEQRVSLDIDLWDKFSELSTKCIIKTVEFAKQLPGFTTLTIADQITLLKAACLDILILRICTRYTPEQDTMTFSDGLTLNRTQMHNAGFGPLTDLVFAFANQLLPLEMDDAETGLLSAICLICGDRQDLEQPDRVDMLQEPLLEALKVYVRKRRPSRPHMFPKMLMKITDLRSISAKGAERVITLKMEIPGSMPPLIQEMLENSEGLDTLSGQPGGGGRDGGGLAPPPGSCSPSLSPSSNRSSPATHSP

What was measured:
[1] = tested on: mUCP2 promoter; assay: NHR-promoter luciferase screen, mUCP2 promoter; format: cell-based, mouse; conditions: for Luc. act., normalized to lacZ / Normalized Luc. act., normalized to control: mUCP2 promoter reporter, co-transfected HR, with or without its ligand; for Normalized Luc. act., normalized to control: relative to control; for luciferase activity normalized to lacZ activity and to a control, mUCP2: mUCP2 promoter-luciferase, CV-1 cells, NHR +/- ligand, control = 1.00
Method: (§1) The use, feasibility, and reproducibility of the functional NHR-promoter screen in a 48-well format have been tested validated. Briefly, there were co-expressed 50 ng of each NHR/NHR homodimer or NHR/RXR heterodimer with 100 ng promoter/luciferase construct and 50 ng of LacZ (as a control for transfection efficiency) in CV-1 cells using Fugene HD (Roche) as a transfection reagent (alternatively or additionally, a CMV-YFP construct can be used as a transfection control). Each of the nuclear hormone receptors that were used in these experiments was cloned into a pcDNA3.1 vector and comprised a C-terminally linked V5H6 tag. Twenty-four hours after transfection, appropriate ligands were added, where applicable, (see Table 5 for various ligands and concentrations and after 48 hrs, samples were assayed for luciferase and LacZ activity. To measure for luciferase activity 15 ul of sample was added to 30 ul of luciferase buffer (20 mM tricine, 1.07 mM MgCarbonate, 2.67 mM MgSulfate, 0.1 mM Naz-EDTA, 5 mM DTT, 5 mM ATP, 0.15 mg/ml CoA, 0.5 mM Luciferin), mixed briefly, and run in a Perkin Elmer Victor 5 luminometer. Thus, the functional NHR-promoter screen was used to observe the transcriptional activity of 29 promoters from various physiological pathways including inflammation, lipid and sugar metabolism, cholesterol transport, xenobiotic metabolism, and circadian rhythm.
(§2) The promoters that facilitate transcription of the indicated gene products that were tested using the protocols described herein are listed in the first row of the table. The nuclear hormone receptors and, where applicable, ligands that were assayed for their transcriptional effects on the promoters are listed in the first column of the table. The data represent the luciferase activity of each sample normalized to both the lacZ activity of that sample and to a control, e.g., no NHR or ligand, as customary in the art. As described previously, these normalizations allow the transcriptional activity of each reporter cell to be compared to other samples.
(§3) Tables 7-40 show the transcriptional effects of the hormone receptors, and, where applicable, ligands (orphan receptors are screened without ligand), on each individual promoter. […] The control data of each table are shown in their last rows.

[2] = tested on: mAdiponectin promoter; assay: NHR-promoter luciferase screen, mAdiponectin promoter; format: cell-based, mouse; conditions: for Luc. act., normalized to lacZ / Normalized Luc. act., normalized to control: Adiponectin, HR component without or with its ligand; for mAdiponectin promoter reporter activity: transcription factor +/- ligand, control = 1.00
Method: as §1, §2, §3

[3] = tested on: Bmal1 promoter; assay: NHR-promoter luciferase screen, Bmal1 promoter; format: cell-based, mouse; conditions: for Luc. act., normalized to lacZ / Normalized Luc. act., normalized to control: Bmal1 promoter, HR component without or with ligand; for regulation of the Bmal1 promoter: FIG. 2c, in words; for mBmal1 promoter reporter activity: transcription factor +/- ligand, control = 1.00
Method: as §1, §2, §3

[4] = tested on: hCAR promoter; assay: NHR-promoter luciferase screen, hCAR promoter; format: cell-based, human; conditions: for luciferase activity normalized to lacZ activity and to a control, hCAR: hCAR promoter-luciferase, CV-1 cells, NHR +/- ligand, control = 1.00; for Luc. act., normalized to lacZ / Normalized Luc. act., normalized to control: hCAR promoter, HR/ligand component
Method: as §1, §2, §3

[5] = tested on: mNPY promoter; assay: NHR-promoter luciferase screen, mNPY promoter; format: cell-based, mouse; conditions: for Results of assays of transcription factor (+/- ligand) with mNPY: Table 6d, luciferase activity relative to control (control = 1.00); for Luc. act., normalized to lacZ / Normalized Luc. act., normalized to control: mNPY promoter, HR component with or without ligand; for Normalized Luc. act., normalized to control: relative to control
Method: as §1, §2, §3

[6] = tested on: mCAR promoter; assay: NHR-promoter luciferase screen, mCAR promoter; format: cell-based, mouse; conditions: for luciferase activity normalized to lacZ activity and to a control, mCAR: mCAR promoter-luciferase, CV-1 cells, NHR +/- ligand, control = 1.00; for Luc. act., normalized to lacZ / Normalized Luc. act., normalized to control: mCAR promoter, HR/ligand component
Method: as §1, §2, §3

Molecule	Luc. act., normalized to lacZ [1]	Normalized Luc. act., normalized to control [1]	luciferase activity normalized to lacZ activity and to a control, mUCP2 [1]	Luc. act., normalized to lacZ [2]	Normalized Luc. act., normalized to control [2]	mAdiponectin promoter reporter activity [2]	Luc. act., normalized to lacZ [3]	Normalized Luc. act., normalized to control [3]	regulation of the Bmal1 promoter [3]	mBmal1 promoter reporter activity [3]	luciferase activity normalized to lacZ activity and to a control, hCAR [4]	Luc. act., normalized to lacZ [4]	Normalized Luc. act., normalized to control [4]	Results of assays of transcription factor (+/- ligand) with mNPY [5]	Luc. act., normalized to lacZ [5]	Normalized Luc. act., normalized to control [5]	luciferase activity normalized to lacZ activity and to a control, mCAR [6]	Luc. act., normalized to lacZ [6]	Normalized Luc. act., normalized to control [6]
B1	143.0	1.3	1.30	55.2	0.9	0.88	2.5	0.2	specific repression	0.16	1.05	33.3	1.1	1.09	91.9	1.1	0.89	34.0	0.9
B2	277.3	2.5	2.52	81.2	1.3	1.29	15.6	1.0		1.00	1.31	41.4	1.3	1.17	97.9	1.2	1.30	49.6	1.3
B3	174.4	1.6	1.59	66.3	1.1	1.06	0.8	0.1	specific repression	0.05	1.13	35.7	1.1	1.67	140.6	1.7	0.91	34.5	0.9
B4	232.0	2.1	2.11	78.6	1.3	1.25	18.9	1.2		1.21	1.05	33.2	1.1	1.24	103.8	1.2	1.22	46.3	1.2
